Test results as given in paper PMC6872781 (Neoplasia (New York, N.Y.), 2019).

Molecular target: T1, PODXL1-HA(x3)-His(x6) (human, UniProt O00592-1 23-558)
T1 sequence (looked up): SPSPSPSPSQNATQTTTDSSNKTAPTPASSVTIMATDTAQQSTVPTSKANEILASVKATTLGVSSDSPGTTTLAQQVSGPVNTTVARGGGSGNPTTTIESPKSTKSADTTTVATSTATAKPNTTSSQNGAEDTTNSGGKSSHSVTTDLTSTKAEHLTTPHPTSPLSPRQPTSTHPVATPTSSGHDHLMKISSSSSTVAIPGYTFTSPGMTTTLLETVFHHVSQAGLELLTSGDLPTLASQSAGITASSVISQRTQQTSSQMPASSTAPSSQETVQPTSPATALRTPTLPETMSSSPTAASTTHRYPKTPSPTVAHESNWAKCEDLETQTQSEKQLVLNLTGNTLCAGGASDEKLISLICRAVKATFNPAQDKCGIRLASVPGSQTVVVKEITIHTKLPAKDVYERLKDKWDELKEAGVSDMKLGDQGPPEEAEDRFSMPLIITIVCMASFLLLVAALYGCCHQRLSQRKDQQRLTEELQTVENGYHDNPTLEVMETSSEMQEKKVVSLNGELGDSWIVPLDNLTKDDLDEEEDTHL
Assay: pull-down

B1: C5aR (Complement component 5a receptor 1), C-terminal 3xFlag-6xHis-tagged (receptor, human, UniProt P21730 1-350, looked up)
chain: MDSFNYTTPDYGHYDDKDTLDLNTPVDKTSNTLRVPDILALVIFAVVFLVGVLGNALVVWVTAFEAKRTINAIWFLNLAVADFLSCLALPILFTSIVQHHHWPFGGAACSILPSLILLNMYASILLLATISADRFLLVFKPIWCQNFRGAGLAWIACAVAWGLALLLTIPSFLYRVVREEYFPPKVLCGVDYSHDKRRERAVAIVRLVLGFLWPLLTLTICYTFILLRTWSRRATRSTKTLKVVVAVVASFFIFWLPYQVTGIMMSFLEPSSPTFLLLKKLDSLCVSFAYINCCINPIIYVVAGQGFQGRLRKSLPSLLRNVLTEESVVRESKSFTRSTVDTMAQKTQAV
- binding result: binds
